{"source": "FireProtDB (doi:10.1002/pro.5560060717)", "parents": {"B1": {"name": "Gamma-crystallin B, P02526 (parent)", "chain": "MGKITFYEDRGFQGHCYECSSDCPNLQPYFSRCNSIRVDSGCWMLYERPNYQGHQYFLRRGDYPDYQQWMGFNDSIRSCRLIPQHTGTFRMRIYERDDFRGQMSEITDDCPSLQDRFHLTEVHSLNVLEGSWVLYEMPSYRGRQYLLRPGEYRRYLDWGAMNAKVGSLRRVMDFY"}}, "note": "Values joined by “and” are separate entries in the source; they are usually repeats but may differ in a detail not shown here. Identical values can stand only once."}
{"variants_of": "B1", "details": "Bos taurus; pH 2; 20 °C; Urea; Fluorescence; NaCl-HCl 100 mM; reversible: yes; structure 4GCR; whole UniProt chain shown"}
{"variant": "MGKITFYEDRGFQGHCYECSSDCPNLQPYFSRCNSIRVDSGCWMLYERPNYQGHQYWLRRGDYPDYQQWMGFNDSIRSCRLIPQHTGTFRMRIYERDDFRGQMSEITDDCPSLQDRFHLTEVHSLNVLEGSWVLYEMPSYRGRQYLLRPGEYRRYLDWGAMNAKVGSLRRVMDFY", "note": "[F57W]", "denaturant midpoint (higher = more stable)": "1.5 M and 4.2 M"}
